Results from article PMC2860019 (Journal of molecular biology, 2010).

Columns and labels:
[1] = target: Cp(-10)149d (recombinant HBV e-antigen, residues (-10)-149, C48A, C107A, G123A; dimer) (Hepatitis B virus) (UniProt P03147); assay: AUC
AUC = target: the molecule itself; assay: AUC

Molecule	stoichiometry N [1]	stoichiometry N (AUC)
Cp(-10)149d (recombinant HBV e-antigen, residues (-10)-149, C48A, C107A, G123A; dimer) (from UniProt P03147 1-149) (natural protein)	2	–
Cp149d (HBV capsid protein residues 1-149, C48A, C107A, G123A; dimer) (domain or fragment) MDIDPYKEFGATVELLSFLPSDFFPSVRDLLDTAAALYRDALESPEHASPHHTALRQAILCWGDLMTLATWVGTNLEDPASRDLVVSYVNTNVGLKFRQLLWFHISALTFGRETVLEYLVSFAVWIRTPPAYRPPNAPILSTLPETTVV	–	2
